The target of experiment [1] is human aminopeptidase N (hAPN) ectodomain, residues 62-963, wild type (UniProt P15144). Briefly: SPR. To be noted: parent: 3.71 ± 0.05 µM.
Experiment [2] concerns the target porcine aminopeptidase N (pAPN) ectodomain, residues 58-961, wild type (UniProt P15145). Briefly: SPR. To be noted: parent: 44.24 ± 2.21 µM.
Experiment [3] deals with porcine aminopeptidase N ectodomain, wild type (pig) (UniProt P15145). Briefly: SPR; hAPN/pAPN WT or mutant immobilised on CM5 chips by amine coupling; serially diluted PDCoV RBD WT or mutant flowed over; BIAcore X-100, room temperature; 0.01 M HEPES, 0.15 M NaCl, 0.5% surfactant P20, 3 mM EDTA, pH 7.4; steady-state affinity model. (SPR reads the build-up and loss of mass on a sensor chip optically.)

Experiment [4] deals with human aminopeptidase N ectodomain, wild type (human) (UniProt P15144). Described as above.
For experiment [5] the target is unchanged. Described as above. This is another data set of the same source.
For experiment [6], the target named is porcine aminopeptidase N ectodomain, wild type (pig) (UniProt P15145). Briefly: SPR; BIAcore X-100, room temperature; hAPN/pAPN WT or mutant immobilised on CM5 chips via amine coupling; serially diluted PDCoV RBD WT or mutant flowed over in HEPES buffer (0.01 M HEPES, 0.15 M NaCl, 0.5% surfactant P20, 3 mM EDTA, pH 7.4); steady-state affinity model; each of two experiments listed.

Experiment [7] deals with human aminopeptidase N ectodomain, wild type (human) (UniProt P15144). The experiment is described as above.
Experiment [8] deals with porcine aminopeptidase N ectodomain, wild type (pig) (UniProt P15145). Briefly: SPR; hAPN/pAPN WT or mutant immobilised on CM5 chips by amine coupling; serially diluted PDCoV RBD WT or mutant flowed over; BIAcore X-100, room temperature; 0.01 M HEPES, 0.15 M NaCl, 0.5% surfactant P20, 3 mM EDTA, pH 7.4; steady-state affinity model. This is another data set of the same source.

Where “and” joins values, the source holds several entries; their conditions need not be identical. Identical values can stand only once. Some results are limits rather than exact numbers.

human aminopeptidase N (hAPN) ectodomain, residues 62-963, wild type, sequence (P15144 62-963): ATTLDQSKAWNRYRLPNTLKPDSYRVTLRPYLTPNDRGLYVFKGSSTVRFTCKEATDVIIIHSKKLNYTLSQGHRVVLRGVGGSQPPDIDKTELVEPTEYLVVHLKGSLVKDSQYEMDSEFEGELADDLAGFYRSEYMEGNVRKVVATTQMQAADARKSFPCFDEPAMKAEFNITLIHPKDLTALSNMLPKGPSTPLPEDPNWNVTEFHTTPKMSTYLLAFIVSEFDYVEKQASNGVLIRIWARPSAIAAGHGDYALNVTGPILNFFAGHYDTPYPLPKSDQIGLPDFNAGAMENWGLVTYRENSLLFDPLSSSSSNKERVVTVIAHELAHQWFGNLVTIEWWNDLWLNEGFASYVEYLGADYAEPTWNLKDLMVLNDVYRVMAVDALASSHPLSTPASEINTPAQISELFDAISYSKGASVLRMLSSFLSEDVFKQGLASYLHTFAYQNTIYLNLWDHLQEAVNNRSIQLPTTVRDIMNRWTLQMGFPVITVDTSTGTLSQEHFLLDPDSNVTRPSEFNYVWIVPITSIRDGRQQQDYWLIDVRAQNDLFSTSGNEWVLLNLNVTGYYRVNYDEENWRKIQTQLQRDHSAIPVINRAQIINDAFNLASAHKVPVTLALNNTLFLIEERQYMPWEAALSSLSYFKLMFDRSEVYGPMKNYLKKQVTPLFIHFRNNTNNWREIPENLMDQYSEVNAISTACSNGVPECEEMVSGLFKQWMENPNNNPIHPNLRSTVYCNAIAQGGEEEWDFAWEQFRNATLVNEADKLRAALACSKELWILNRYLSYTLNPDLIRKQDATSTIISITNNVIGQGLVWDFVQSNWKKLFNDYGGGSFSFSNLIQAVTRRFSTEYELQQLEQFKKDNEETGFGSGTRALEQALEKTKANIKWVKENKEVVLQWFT
human aminopeptidase N ectodomain, wild type (human), sequence (P15144 62-963): as above
porcine aminopeptidase N ectodomain, wild type (pig), sequence (P15145 58-961): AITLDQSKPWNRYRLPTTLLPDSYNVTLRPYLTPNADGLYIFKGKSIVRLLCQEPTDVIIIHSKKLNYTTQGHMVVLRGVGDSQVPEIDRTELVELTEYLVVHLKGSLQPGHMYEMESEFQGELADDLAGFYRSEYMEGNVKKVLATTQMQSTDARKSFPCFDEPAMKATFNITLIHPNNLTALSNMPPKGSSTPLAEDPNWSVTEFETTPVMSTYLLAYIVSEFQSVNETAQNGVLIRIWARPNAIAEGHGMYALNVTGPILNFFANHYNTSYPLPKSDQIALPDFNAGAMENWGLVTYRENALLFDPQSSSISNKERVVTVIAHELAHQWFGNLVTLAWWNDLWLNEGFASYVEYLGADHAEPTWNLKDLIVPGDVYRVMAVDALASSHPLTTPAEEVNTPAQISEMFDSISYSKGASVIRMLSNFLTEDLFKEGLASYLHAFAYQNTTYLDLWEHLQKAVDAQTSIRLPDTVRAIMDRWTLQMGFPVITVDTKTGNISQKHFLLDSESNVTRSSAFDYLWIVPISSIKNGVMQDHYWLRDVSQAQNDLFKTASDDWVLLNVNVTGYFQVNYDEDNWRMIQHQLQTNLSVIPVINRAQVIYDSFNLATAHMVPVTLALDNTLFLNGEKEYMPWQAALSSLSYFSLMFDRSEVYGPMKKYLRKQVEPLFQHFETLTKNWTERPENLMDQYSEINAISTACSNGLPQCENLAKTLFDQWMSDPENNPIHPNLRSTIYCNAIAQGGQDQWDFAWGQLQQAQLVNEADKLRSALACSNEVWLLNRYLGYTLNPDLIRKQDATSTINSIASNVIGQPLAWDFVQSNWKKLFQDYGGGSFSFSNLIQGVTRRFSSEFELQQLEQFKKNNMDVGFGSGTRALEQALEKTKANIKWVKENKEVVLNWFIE
porcine aminopeptidase N (pAPN) ectodomain, residues 58-961, wild type, sequence (P15145 58-961): as above

Consider “PDCoV spike (S) protein receptor binding domain (RBD), residues 300-419, wild type E320A”, for which the Kd (as a rule, a measure of binding affinity in units of concentration) in experiment [1] was 161 µM; in experiment [2], 249 µM. Regarding “PDCoV spike protein receptor binding domain W396A (domain or fragment)”, the figures for the Kd in experiment [3], in experiment [4] and in experiment [5] were above 1000 µM, above 1000 µM and 88000 µM, respectively. With PDCoV RBD N397A (domain or fragment), the Kd is 34 µM and 53.8 µM in experiment [6]; 3.35 µM and 3.62 µM in experiment [7]. Regarding “PDCoV spike (S) protein receptor binding domain (RBD), residues 300-419, wild type R322A”, the results for the Kd in experiment [1] and in experiment [2] were 295 µM and 504 µM, respectively. As to “PDCoV spike protein receptor binding domain R357A (domain or fragment)”, the Kd is 27.7 µM and 60.5 µM in experiment [8]; 199 µM and 232 µM in experiment [5].

As to “PDCoV spike protein receptor binding domain E320A (domain or fragment)”, the Kd in experiment [8] was 279 µM and 220 µM; in experiment [5], 135 µM and 188 µM. Regarding PDCoV RBD R357A (domain or fragment), the Kd is 27.7 µM and 60.5 µM in experiment [6]; 199 µM and 232 µM in experiment [7]. On to PDCoV RBD Y398A (domain or fragment), for which the Kd in experiment [7] was 309 µM and 730 µM. On to “PDCoV spike (S) protein receptor binding domain (RBD), residues 300-419, wild type F318A”, for which the Kd is 133 µM in experiment [1] and 664 µM in experiment [2]. In the case of PDCoV RBD R322A (domain or fragment), the Kd in experiment [6] is 454 µM and 553 µM; in experiment [7], 256 µM and 335 µM. Take “PDCoV spike protein receptor binding domain R322A (domain or fragment)”: the dissociation constant (Kd) in experiment [8] was 454 µM and 553 µM; in experiment [5], 256 µM and 335 µM. As for PDCoV RBD W396A (domain or fragment), the Kd in experiment [7] was 88000 µM.

In the case of “PDCoV spike protein receptor binding domain F318A (domain or fragment)”, the Kd in experiment [8] is 817 µM and 511 µM; in experiment [5] it was 112 µM and 154 µM. Regarding “PDCoV spike protein receptor binding domain Y398A (domain or fragment)”, the Kd is above 1000 µM in experiment [3]; 309 µM and 730 µM in experiment [5]. With PDCoV RBD E320A (domain or fragment), the Kd is 279 µM and 220 µM in experiment [6]; 135 µM and 188 µM in experiment [7]. Take “PDCoV spike protein receptor binding domain N397A (domain or fragment)”: the dissociation constant (Kd) is 34 µM and 53.8 µM in experiment [8]; 3.35 µM and 3.62 µM in experiment [5]. Consider PDCoV RBD F318A (domain or fragment), for which the Kd in experiment [6] was 817 µM and 511 µM; in experiment [7], 112 µM and 154 µM. Take “PDCoV spike (S) protein receptor binding domain (RBD), residues 300-419, wild type N397A”: the Kd in experiment [1] was 3.49 µM. For “PDCoV spike (S) protein receptor binding domain (RBD), residues 300-419, wild type R357A”, the Kd in experiment [1] was found to be 216 µM. Turning to “PDCoV spike (S) protein receptor binding domain (RBD), residues 300-419, wild type Y398A”, in experiment [1], the Kd came to 520 µM.
